Laboratory results published in patent publication US20240124575A1 (SIMCERE ZAIMING PHARMACEUTICAL, published 2024).
Like-named read-outs stand apart in the source and are kept apart here.

What was measured:
monkey CD33 protein [1] = molecular target: T1, monkey CD33 protein (monkey); test: ELISA, coated monkey CD33, antibody 0.01 nM
T1 construct: The printed catalogue numbers for murine and monkey CD33 may be interchanged; also called monkey CD33-His protein

monkey CD33 protein [2] = molecular target: T1, monkey CD33 protein; test: ELISA, coated monkey CD33, antibody 1 nM
monkey CD33 protein [3] = molecular target: T1, monkey CD33 protein; test: ELISA, coated monkey CD33, antibody 0.001 nM
monkey CD33 protein [4] = molecular target: T1, monkey CD33 protein; test: ELISA, coated monkey CD33, antibody 1 nM; remark: listed apart in the source
monkey CD33 protein [5] = molecular target: T1, monkey CD33 protein; test: ELISA, coated monkey CD33, antibody 0.1 nM
[6] = molecular target: T2, monkey CD33 on HEK293T-monkey CD33 cells (monkey); test: FACS on HEK293T-monkey CD33 cells
T2 construct: whole, on cells

monkey CD33 protein [7] = molecular target: T1, monkey CD33 protein; test: ELISA, coated monkey CD33, antibody 0.1 nM; remark: listed apart in the source
monkey CD33 protein [8] = molecular target: T1, monkey CD33 protein; test: ELISA, coated monkey CD33, antibody 0.001 nM; remark: listed apart in the source
monkey CD33 protein [9] = molecular target: T1, monkey CD33 protein; test: ELISA, coated monkey CD33, antibody 0.0001 nM
monkey CD33 protein [10] = molecular target: T1, monkey CD33 protein; test: ELISA, coated monkey CD33, antibody 0.0001 nM; remark: listed apart in the source
monkey CD33 protein [11] = molecular target: T1, monkey CD33 protein; test: ELISA, coated monkey CD33, antibody 10 nM
monkey CD33 protein [12] = molecular target: T1, monkey CD33 protein; test: ELISA, coated monkey CD33, antibody 100 nM
monkey CD33 protein [13] = molecular target: T1, monkey CD33 protein; test: ELISA, coated monkey CD33, antibody 10 nM; remark: listed apart in the source
monkey CD33 protein [14] = molecular target: T1, monkey CD33 protein; test: SPR (Biacore), antibody captured on Protein A chip, monkey CD33 protein as analyte
Experimental: (§1) The sample and running buffer was HBS-EP+ (10 mM HEPES, 150 mM NaCl, 3 mM EDTA, 0.05% surfactant P20) (GE Healthcare; BR-1006-69). The flow cell was set at 25° C. The sample block was set at 16° C. Both were pretreated with the running buffer. In each cycle, first, the antibody to be tested was captured using the Protein A chip, and then a single concentration of CD33 antigen protein was injected. The association and dissociation processes of the antibody with the antigen protein were recorded, and finally, the chip was regenerated using Glycine pH 1.5 (GE Healthcare; BR-1003-54). The association was determined by injecting different concentrations of recombinant human CD33-his in the solution and maintaining for 240 s, wherein the flow rate was 30 μL/min, and the protein was diluted in a 1:1 dilution ratio from 200 nM to obtain 5 concentrations in total. The dissociation phase was monitored for up to 600 s and triggered by switching from the sample solution to the running buffer. The surface was regenerated by washing with 10 mM glycine solution (pH 1.5) at a flow rate of 30 μL/min for 30 s. The difference in bulk refractive index was corrected by subtracting the responses obtained from the […]. Blank injections were also subtracted (=double reference). To calculate the apparent KD and other kinetic parameters, the Langmuir 1:1 model was used.
(§2) The assay on affinity of VHH-Fc antibodies for monkey CD33 protein (Sino Biological, Cat. No. 50712-M08H) was performed according to the method in Example 7.1.

monkey CD33 protein [15] = molecular target: T1, monkey CD33 protein; test: ELISA, coated monkey CD33, antibody 0.01 nM; remark: listed apart in the source
human CD33-His [16] = molecular target: T3, human CD33-His (human, UniProt P20138 18-259); test: SPR (Biacore), antibody captured on Protein A chip, human CD33-his as analyte
T3 construct: range 18-259; Bought protein; also called human CD33-his protein; hCD33-his; not shown: His tag
T3 sequence (P20138 18-259 limits assumed): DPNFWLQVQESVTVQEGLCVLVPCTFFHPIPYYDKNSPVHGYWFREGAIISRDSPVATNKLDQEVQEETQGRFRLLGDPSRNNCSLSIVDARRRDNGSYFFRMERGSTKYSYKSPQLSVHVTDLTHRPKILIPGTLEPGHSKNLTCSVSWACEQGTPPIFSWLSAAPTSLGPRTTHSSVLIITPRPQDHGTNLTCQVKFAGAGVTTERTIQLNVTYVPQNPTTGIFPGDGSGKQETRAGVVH
Experimental: as §1

monkey CD33 protein [17] = molecular target: T1, monkey CD33 protein; test: ELISA, coated monkey CD33, antibody 100 nM; remark: listed apart in the source
[18] = molecular target: T2, monkey CD33 on HEK293T-monkey CD33 cells; test: FACS on HEK293T-monkey CD33 cells; remark: listed apart in the source
monkey CD33 protein [19] = molecular target: T1, monkey CD33 protein; test: SPR (Biacore), antibody captured on Protein A chip, monkey CD33 protein as analyte; remark: listed apart in the source
Experimental: as §1, §2

human CD33-His [20] = molecular target: T3, human CD33-His; test: SPR (Biacore), antibody captured on Protein A chip, human CD33-his as analyte; remark: listed apart in the source
Experimental: as §1

OD450 (monkey CD33 protein [1]): 0.15 OD450
OD450 (monkey CD33 protein [2]): 2.73 OD450
OD450 (monkey CD33 protein [3]): 0.07 OD450
OD450 (monkey CD33 protein [4]): 2.52 OD450
OD450 (monkey CD33 protein [5]): 1.15 OD450
EC50 [6]: 5700 pM
Max MFI [6]: 3590 MFI
OD450 (monkey CD33 protein [7]): 0.99 OD450
OD450 (monkey CD33 protein [8]): 0.06 OD450
OD450 (monkey CD33 protein [9]): 0.06 OD450
OD450 (monkey CD33 protein [10]): 0.04 OD450
OD450 (monkey CD33 protein [11]): 3.09 OD450
OD450 (monkey CD33 protein [12]): 3.4 OD450
OD450 (monkey CD33 protein [13]): 3.23 OD450
Kd (monkey CD33 protein [14]): 494 pM
koff (monkey CD33 protein [14]): 0.000497 s⁻¹
kon (monkey CD33 protein [14]): 1.01e+06 M⁻¹ s⁻¹
OD450 (monkey CD33 protein [15]): 0.29 OD450
Kd (human CD33-His [16]): 157 pM
koff (human CD33-His [16]): 4.08e-05 s⁻¹
kon (human CD33-His [16]): 260000 M⁻¹ s⁻¹
OD450 (monkey CD33 protein [17]): 3.06 OD450
EC50 [18]: 4800 pM
Max MFI [18]: 7880 MFI
Kd (monkey CD33 protein [19]): 492 pM
koff (monkey CD33 protein [19]): 0.000632 s⁻¹
kon (monkey CD33 protein [19]): 1.29e+06 M⁻¹ s⁻¹
Kd (human CD33-His [20]): 155 pM
koff (human CD33-His [20]): 7.44e-05 s⁻¹
kon (human CD33-His [20]): 479000 M⁻¹ s⁻¹
B1: C33B904 (antibody, human IgG1, kappa, V domains shown)
VH: EVQLVESGGGLVQPGRSLRLSCAASGFTFDDYAMHWVRQAPGKGLEWVSGIGWSGGSIVYADSVKGRFTISRDNAKNSLYLQMNSLRAEDTALYYCAKDSPYGDFFDYWGQGTLVTVSS
VL: DIVMTQSPDSLAVSLGERATINCKSSQTVFYSSNNKNYLAWYQQKPGQPPKLLISWASTRKSGVPDRFSGSGSGTDFTLTVSSLQAEDVAVYYCQHYYSTPYTFGQGTKLEIKR
notes: Control antibody, intact human IgG1; variable regions from US20190382481A1; also called C33B904 hIgG1; C331B904
